Patent US20210380703A1 (RIGEL PHARMACEUTICALS, published 2021)

Columns and labels:
[1] = target: T1, biotinylated goat anti-human kappa light chain; test: ELISA, positive control
T1 construct: positive control of the ELISA
Summary of the method: (§1)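 mAb binding by ELISA; antigens: hu ACVR2A, mu ACVR2A; pos ctrl biotinylated goat anti-hu kappa LC; neg ctrl hu Fc.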

[2] = target: T2, human ACVR2A (human, UniProt P27037 20-135, limits assumed); test: ELISA
T2 construct: also called activin receptor, type II A
T2 sequence (P27037 20-135 limits assumed): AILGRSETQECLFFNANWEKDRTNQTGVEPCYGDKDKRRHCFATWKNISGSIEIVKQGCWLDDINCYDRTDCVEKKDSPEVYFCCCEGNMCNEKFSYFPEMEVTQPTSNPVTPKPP
Summary of the method: as §1

[3] = target: mouse ACVR2A (mouse, UniProt P27038 20-135, limits assumed); test: ELISA
Chain of mouse ACVR2A (P27038 20-135 limits assumed): as the sequence (P27037 20-135 limits assumed) above, with K20R, V73I counted along it
Summary of the method: as §1
Note: test concentration or dose not given here.

optical density [1]	optical density [2]	optical density [3]	Binder
3.36 OD	2.34 OD	2.57 OD	367_A06 (antibody, V domains shown, Group III) VH: EVQLLESGGGLVQPGGSLRLSCAASGFTFDSYGMNWVRQAPGKGLEWVASINYNGGYKGYADSVKGRFTISRDNSKNTLYLQMNSLRAEDTAVYYCARGANWHDTHLDYWGQGTLVTVSS VL: DIQMTQSPSSLSASVGDRVTITCRASQSILSYVNWYQQKPGKAPKLLIYAATSRHSGVPSRFSGSGSGTDFTLTISSLQPEDFATYYCQQSYDTPLTFGGGTKVEIK
3.6 OD	2.34 OD	2.46 OD	367_B11 (antibody, V domains shown, Group I) VH: EVQLLESGGGLVQPGGSLRLSCAASGFTFSDYSMHWVRQAPGKGLEWVANINYNSGYTSYADSVKGRFTISRDNSKNTLYLQMNSLRAEDTAVYYCARAANWHDTALDYWGQGTLVTVSS VL: DIQMTQSPSSLSASVGDRVTITCRASQSILSYLNWYQQKPGKAPKLVIYAATSRASGVPSRFSGSGSGTDFTLTISSLQPEDFATYYCQQSYSTPLTFGGGTKVEIK
3.35 OD	2.01 OD	2.04 OD	367_F06 (antibody, V domains shown, Group I) VH: EVQLLESGGGLVQPGGSLRLSCAASGFTFSSYGMNWVRQAPGKGLEWVSSINYNSGYTSYADSVKGRFTISRDNSKNTLYLQMNSLRAEDTAVYYCARAANWHDTALDYWGQGTLVTVSS VL: DIQMTQSPSSLSASVGDRVTITCRASQSISSYVNWYQQKPGKAPKLLIYAVTSRASGVPSRFSGSGSGTDFTLTISSLQPEDFATYYCQQSYDSPLTFGGGTKVEIK
3.54 OD	2.08 OD	2.19 OD	367_F08 (antibody, V domains shown, Group II) VH: EVQLLESGGGLVQPGGSLRLSCAASGFTFSSYGMHWVRQAPGKGLEWVSSINYNSGYTSYADSVKGRFTISRDNSKNTLYLQMNSLRAEDTAVYYCARAATWHDTHLDYWGQGTLVTVSS VL: DIQMTQSPSSLSASVGDRVTITCRASQSILSYVNWYQQKPGKAPKLVIYAATSRASGVPSRFSGSGSGTDFTLTISSLQPEDFATYYCQQSNELPLTFGGGTKVEIK
3.48 OD	2.77 OD	2.98 OD	367_E10 (antibody, V domains shown, Group II) VH: EVQLLESGGGLVQPGGSLRLSCAASGFTFSSYGMHWVRQAPGKGLEWVSSINYNGGYTGYADSVKGRFTISRDNSKNTLYLQMNSLRAEDTAVYYCARAATWHDTHLDYWGQGTLVTVSS VL: DIQMTQSPSSLSASVGDRVTITCRASQSILSYVNWYQQKPGKAPKLLIYAATSRASGVPSRFSGSGSGTDFTLTISSLQPEDFATYYCQQSYELPLTFGGGTKVEIK
3.6 OD	2.59 OD	2.63 OD	367_G03 (antibody, V domains shown, Group II) VH: EVQLLESGGGLVQPGGSLRLSCAASGFTFDSYSMHWVRQAPGKGLEWVANINYNGGYTSYADSVKGRFTISRDNSKNTLYLQMNSLRAEDTAVYYCARAATWHDTHLDYWGQGTLVTVSS VL: DIQMTQSPSSLSASVGDRVTITCRASQSIVSYVNWYQQKPGKAPKLVIYAATSRHSGVPSRFSGSGSGTDFTLTISSLQPEDFATYYCQQSYDLPLTFGGGTKVEIK
3.42 OD	2.21 OD	2.36 OD	367_F10 (antibody, V domains shown, Group II) VH: EVQLLESGGGLVQPGGSLRLSCAASGFTFDSYGMNWVRQAPGKGLEWVSGINYNSGYTSYADSVKGRFTISRDNSKNTLYLQMNSLRAEDTAVYYCARAATWHDTHLDYWGQGTLVTVSS VL: DIQMTQSPSSLSASVGDRVTITCRASQSILTYLNWYQQKPGKAPKLLIYAATSRASGVPSRFSGSGSGTDFTLTISSLQPEDFATYYCQQSYDTPLTFGGGTKVEIK
3.34 OD	2.06 OD	2.09 OD	367_A08 (antibody, V domains shown, Group III) VH: EVQLLESGGGLVQPGGSLRLSCAASGFTFDSYGMNWVRQAPGKGLEWVAGINYNGGYTSYADSVKGRFTISRDNSKNTLYLQMNSLRAEDTAVYYCARGANWHDTHLDYWGQGTLVTVSS VL: DIQMTQSPSSLSASVGDRVTITCRASQSILTYLNWYQQKPGKAPKLLIYAVTSRASGVPSRFSGSGSGTDFTLTISSLQPEDFATYYCQQSYDSPLTFGGGTKVEIK
3.44 OD	2.41 OD	2.77 OD	367_C09 (antibody, V domains shown, Group I) VH: EVQLLESGGGLVQPGGSLRLSCAASGFTFDSYGMHWVRQAPGKGLEWVASINYNGGYTSYADSVKGRFTISRDNSKNTLYLQMNSLRAEDTAVYYCARAANWHDTHLDYWGQGTLVTVSS VL: DIQMTQSPSSLSASVGDRVTITCRASQSILSYVNWYQQKPGKAPKLVIYAATSRHSGVPSRFSGSGSGTDFTLTISSLQPEDFATYYCQQSYNTPLTFGGGTKVEIK
3.43 OD	2.04 OD	2.37 OD	367_E08 (antibody, V domains shown, Group II) VH: EVQLLESGGGLVQPGGSLRLSCAASGFTFSDYGMNWVRQAPGKGLEWVASINYNGGYTSYADSVKGRFTISRDNSKNTLYLQMNSLRAEDTAVYYCARAATWHDTHLDYWGQGTLVTVSS VL: DIQMTQSPSSLSASVGDRVTITCRASQSILSYLNWYQQKPGKAPKLLIYATTSRASGVPSRFSGSGSGTDFTLTISSLQPEDFATYYCQQSYDNPLTFGGGTKVEIK
3.58 OD	2.06 OD	2.1 OD	367_C12 (antibody, V domains shown, Group II) VH: EVQLLESGGGLVQPGGSLRLSCAASGFTFSSYGMHWVRQAPGKGLEWVSGINYNGGYTSYADSVKGRFTISRDNSKNTLYLQMNSLRAEDTAVYYCARAATWHDTHLDYWGQGTLVTVSS VL: DIQMTQSPSSLSASVGDRVTITCRASQSILSYVNWYQQKPGKAPKLLIYATTSRHSGVPSRFSGSGSGTDFTLTISSLQPEDFATYYCQQSYESPLTFGGGTKVEIK
3.5 OD	2.12 OD	2.51 OD	367_C06 (antibody, V domains shown, Group II) VH: EVQLLESGGGLVQPGGSLRLSCAASGFTFDSYSMHWVRQAPGKGLEWVASINYNGGYKSYADSVKGRFTISRDNSKNTLYLQMNSLRAEDTAVYYCARAATWHDTHLDYWGQGTLVTVSS VL: DIQMTQSPSSLSASVGDRVTITCRASQSILTYLNWYQQKPGKAPKLVIYAATSLHSGVPSRFSGSGSGTDFTLTISSLQPEDFATYYCQQSYDTPLTFGGGTKVEIK
3.39 OD	2.4 OD	2.54 OD	367_D11 (antibody, V domains shown, Group I) VH: EVQLLESGGGLVQPGGSLRLSCAASGFTFDSYGMHWVRQAPGKGLEWVSNINYNGGYKSYADSVKGRFTISRDNSKNTLYLQMNSLRAEDTAVYYCARAANWHDTALDYWGQGTLVTVSS VL: DIQMTQSPSSLSASVGDRVTITCRASQSIISYLNWYQQKPGKAPKLLIYAATSRASGVPSRFSGSGSGTDFTLTISSLQPEDFATYYCQQSYDSPLTFGGGTKVEIK
3.37 OD	2.42 OD	2.43 OD	367_B09 (antibody, V domains shown, Group I) VH: EVQLLESGGGLVQPGGSLRLSCAASGFTFDSYGMHWVRQAPGKGLEWVASINYNGGYTSYADSVKGRFTISRDNSKNTLYLQMNSLRAEDTAVYYCARAANWHDTALDYWGQGTLVTVSS VL: DIQMTQSPSSLSASVGDRVTITCRASQSILSYVNWYQQKPGKAPKLVIYAATSRASGVPSRFSGSGSGTDFTLTISSLQPEDFATYYCQQSYENPLTFGGGTKVEIK
